Reference: the supplement of paper PMC9170038

Test system: MS2 coat protein
Assay: apparent KD of MS2 coat protein; higher = weaker reporter binding
Conditions: Eterna round: R107
In short: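 Designed RNA switches were transcribed on-chip from Illumina sequencing clusters. SNAP-549-labelled MS2 coat protein was titrated onto them in twofold steps from 0.7 or 1.5 nM to 3 µM in 100 mM Tris-HCl pH 7.5, 80 mM KCl, 4 mM MgCl2, either without or with constant ligand. Apparent KD reflects the per-design median of normalised cluster binding-curve fits.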

[1] = input ligand: theophylline 20 uM
[2] = input ligand: tryptophan 2.4 mM
[3] = input ligand: theophylline 2 mM

| Sequence | apparent KD of MS2 coat protein (input ligand: arginine 13.2 mM) [nM] | apparent KD of MS2 coat protein [1] [nM] | apparent KD of MS2 coat protein [2] [nM] | apparent KD of MS2 coat protein (input ligand: none) [nM] | apparent KD of MS2 coat protein [3] [nM] |
| --- | --- | --- | --- | --- | --- |
| AGCGACAUGCGUGAUACCAGCUACAUGAGGAUCACCCAUGUCAGUAGGAAACUGCUGUGUAGCCCUUGGCAGCACAGUGCAUGUC [Exclusion - Theophylline B (Freestyle 27)] | 36 | 47.5 | 36.4 |  |  |
| CGGUACAUGAGGAUCACCCAUGUGUCGGAUACCAGAGAGCCGGCUCUCCCUUGGCAGCUGGUGCGACAUGAGGAUCACCCAUGUG [Exclusion Theophylline A GF19] | 29.4 | 58.5 | 53.3 | 61.6 | 67.4 |
| GCACCAGGUACGGAUACCAGCUAUAGGCCCAAUGGGCGACAUGAGGAUCACCCAUGUAAUGGCCCUUGGCAGCUGUACCUGGUGC [SSThB NP+V+V2 #11 +-Same Structure] | 61.6 | 67.2 | 99.8 |  |  |
| ACGACAUGAGGAUCACCCAUGUAAGGUGAUACCAGACGAAGUAAUGUCCCUUGGCAGCACACGCAUAGUUGCGAUUAUUGUACGA [JR_SSTheophyA_Sub007] | 83.7 | 522 | 572 |  |  |
| ACGUCCAGGUUAAUCGUGGACAUGGUCGAUACCAGUAUUUUAAUCUACCCUUGGCAGCGACAUGAGGAUCACCCAUGUGCGAUGA [XTheo A #15] | 11.7 | 14.7 | 13 |  |  |
| GAUCCGUACCAGACCUUCAAUGGACUCAGUCGAGGACCGGUACGGCCGCCACUCGGAGAAGAACAUGAGGAUCACCCAUGUGAUG [theeternabot_exclusion_MS2_Trp_A_36] | 23.9 | 47 |  |  | 34.9 |
| UCGAAUGCGGCGGCCGCCACUCGCGGAUAACGAUAGCUUAACAUGAGGAUCACCCAUGUGUCAUGGAGGACCGGGCCCAUACCGU [azamullin] | 19.7 | 36.1 |  |  | 26.6 |
| ACACAUGAGGAUCACCCAUGUCCAAUAGAUACCAGUGAUACGGUGCACCCUUGGCAGCUGUUGCUGAGUGAUGGUUCCCUCGGAA [Same State Theophylline A GF4] | 48.6 | 138 | 112 |  |  |
| UUCUGGACCCGUGAUACCAGAGACAUGAGGAUCACCCAUGUACAUGAGGAUCACCCAUGUCUCCCUUGGCAGCACUGCAGGGAGC [Exclusion Theophylline B GF 14] | 45.4 | 169 | 133 |  |  |
| UUUGCACAUGAGGAUCACCCAUGUACAGAUACCAGCCUCAUCUACGGCCCUUGGCAGCUGAGAUAAUGGUGACGUGAUGGGCUUU [Edaniser] | 13.5 | 17.2 | 11.6 |  |  |
| GGGUAAGAUCCGGAUACCAGCGAACAUGAGGAUCACCCAUGUGAAAUAAGAUAGACUAAACGCCCUUGGCAGCCGAAAUAGCGUU [Same State Theophylline B GF 4] | 17.9 | 84.7 | 44.1 | 46.6 | 48.9 |
| AGCAACAAGUCGGCCGCCACUCAUUUAACAUGAGGAUCACCCAUGUGAAUAACAUGAUUGUAAUAGAGGACCGGGACAGUUGCAU [JR_SSTryptoB_Sub014] | 62.1 | 85.5 |  |  | 103 |
| CGCGAGACGGCGGCCGCCACUUGUUGUUGGAAACUCGAGUUACAUGAGGAUCACCCAUGUCCUUAAAGGACCGGGCCGUAAGUAA [theeternabot_sameState_MS2_Trp_B_13] | 99.3 | 198 |  |  | 219 |
| AUGUACAUGACGGCCGCCACUACACUGAAAGUGGUCCAGAACAUGAGGAUCACCCAUGUAUCAAGUAGGACCGGGUCAUGUACAU [Tryp B Ex t5] | 178 | 425 |  |  | 697 |
| CCGAACAUGAGGAUCACCCAUGUUAGGGAUACCAGCCCAGACAUGGGCCCUUGGCAGCUCUAUAGCUGACGAAAGUCAGCAUCGG [#14 SameState-TheophyllineA] | 34.9 | 65.7 | 44.4 |  |  |
| UCGUCAGGCGCGGCCGCCACUGCGGUGAUGUGACAUGAGGAUCACCCAUGUUGUCAUGUGGCACAUAGGACCGGGUGCCUGGCGA [Exclusion - Tryptophan B Attempt #5 (HarryS)] | 8.16 | 44.5 | 17.6 | 56 | 114 |
| AUAACAUGAGGAUCACCCAUGUAAGCAGAUACCAGCUAGGAAACUAGCCCUUGGCAGCUGCAAGGUGAUCCUAAUGCAGCUGCAA [(M1)-(M2)-(T1)-(T2)-(M)'-(T)'_Design3] | 61.9 | 241 | 158 |  |  |
| UAUCUAACGAAGGAUACCAGUACAUGAGAGUACAUGAGGAUCACCCAUGUUAGAUACGGGUACCCUUGGCAGCCUCACCUACACC [theeternabot_sameState_MS2_Theo_B_11] | 40.3 | 71.6 | 58 |  |  |
| CAGGCUAGGACGGCCGCCACUGUGGCUACGGUACAUGAGGAUCACCCAUGUUUGUGGUUGAUCUACAGGACCGGGUCCUGACACG [Letisoonri] | 22.2 | 134 |  |  | 278 |
| GCUGCACAUUCGGCCGCCACUGCUGUUACAGGAAGCUAUAGCUCACAUGAGGAUCACCCAUGUCCCAGGACCGGGAAAGUAUGGA [theeternabot_sameState_MS2_Trp_B_39] | 41.2 | 79.2 |  |  | 74.2 |
